In the supplement of paper PMC10126150:
± gives the standard deviation of the averaged measurements.

System: ATP
Assay: switch fluorescence ratio, 500 uM ATP over buffer (Cy3 cluster intensity, sum of 5 cycles each) (fold (ratio)); higher = stronger signal-on switching upon ATP binding; sequences stand for … in TCGTCGGCAGCGTCAGATGTGTATAAGAGACAGTTTTTTTTTTTTTTTTTTTTTTTTT…TC
Conditions: aptamer strand: ATP DNA aptamer (quencher-CACCTGGGGGAGTATTGCGGAGGAAGG + anchor), 100 nM annealed; ATP concentration: 500 uM
Method in brief: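 Clusters with intensities outside 100-1000 RFU were excluded. The remaining Cy3-labelled switching-strand clusters on a modified Illumina MiSeq flow-cell had been annealed to 100 nM quencher-labelled ATP aptamer and imaged in selection buffer, then after 15 min with 500 uM ATP at 22 °C, for five cycles separated by NaOH stripping and re-annealing. The fluorescence ratio, averaged per switch-domain sequence, is each cluster's summed target-cycle Cy3 intensity over its summed buffer-cycle Cy3 intensity.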
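Note: ATP exposure 15 min at 22 °C before imaging.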

TTCTGCTGCT
switch fluorescence ratio: 1.02 ± 0.02

TTCTGCTTTC
switch fluorescence ratio: 1.11 ± 0.03

TTCTGGGAAA
switch fluorescence ratio: 0.9997 ± 0.0057

TTCTGGTGAT
switch fluorescence ratio: 0.999 ± 0.021

TTCTGTCTGG
switch fluorescence ratio: 0.994 ± 0.021

TTCTGTCTGT
switch fluorescence ratio: 1.05 ± 0.052

TTCTGTGCGG
switch fluorescence ratio: 0.978 ± 0.029

TTCTGTTAGC
switch fluorescence ratio: 1.03 ± 0.043

TTCTGTTCTG
switch fluorescence ratio: 1.01 ± 0.039

TTCTGTTGGG
switch fluorescence ratio: 0.984 ± 0.013

TTCTGTTTTG
switch fluorescence ratio: 1.01 ± 0.029

TTCTTAAACA
switch fluorescence ratio: 1.02 ± 0.013

TTCTTAAATT
switch fluorescence ratio: 0.981 ± 0.019

TTCTTAATTT
switch fluorescence ratio: 1 ± 0.025

TTCTTATAGA
switch fluorescence ratio: 1.0069 ± 1.4e-05

TTCTTCATTT
switch fluorescence ratio: 1.22 ± 0.26

TTCTTGGTCT
switch fluorescence ratio: 1.009 ± 0.0067

TTCTTGGTG
switch fluorescence ratio: 1.02 ± 0.072

TTCTTGTGTT
switch fluorescence ratio: 0.993 ± 0.042

TTCTTTACAC
switch fluorescence ratio: 1.039 ± 0.0025

TTCTTTAGAG
switch fluorescence ratio: 0.987 ± 0.055

TTCTTTCCGT
switch fluorescence ratio: 1.06 ± 0.026

TTCTTTCGAG
switch fluorescence ratio: 1.026 ± 0.0045

TTCTTTCTGT
switch fluorescence ratio: 0.998 ± 0.0026

TTCTTTGACG
switch fluorescence ratio: 1.09 ± 0.077

TTCTTTGAGA
switch fluorescence ratio: 1.006 ± 0.0062

TTCTTTGGCA
switch fluorescence ratio: 1.052 ± 0.0061

TTCTTTTCGT
switch fluorescence ratio: 0.979 ± 0.041

TTGAAACTTG
switch fluorescence ratio: 0.952 ± 0.018

TTGAAAGGAG
switch fluorescence ratio: 1 ± 0.026

TTGAAATGGT
switch fluorescence ratio: 0.987 ± 0.018

TTGAAATGTG
switch fluorescence ratio: 1.01 ± 0.017

TTGAACACGG
switch fluorescence ratio: 1.02 ± 0.034

TTGAACGGGG
switch fluorescence ratio: 0.9933 ± 0.0035

TTGAACTACT
switch fluorescence ratio: 1.03 ± 0.016

TTGAACTTTG
switch fluorescence ratio: 0.978 ± 0.061

TTGAAGAAGT
switch fluorescence ratio: 0.9724 ± 0.0095

TTGAAGCAGC
switch fluorescence ratio: 1.45 ± 0.2

TTGAAGCGGT
switch fluorescence ratio: 1.09 ± 0.11

TTGAAGCGTT
switch fluorescence ratio: 0.996 ± 0.018

TTGAAGGGGG
switch fluorescence ratio: 0.993 ± 0.035

TTGAAGGGTC
switch fluorescence ratio: 0.981 ± 0.057

TTGAAGGTCA
switch fluorescence ratio: 1.02 ± 0.015

TTGAAGGTCT
switch fluorescence ratio: 1 ± 0.05

TTGAAGGTTA
switch fluorescence ratio: 0.99 ± 0.016

TTGAAGTAGT
switch fluorescence ratio: 1.03 ± 0.1

TTGAAGTCTA
switch fluorescence ratio: 0.992 ± 0.027

TTGAAGTTGT
switch fluorescence ratio: 1.01 ± 0.039

TTGAATCGCG
switch fluorescence ratio: 1.0115 ± 0.00023

TTGAATTGGG
switch fluorescence ratio: 0.999 ± 0.046

TTGAATTGGT
switch fluorescence ratio: 0.995 ± 0.036

TTGAATTTAA
switch fluorescence ratio: 0.981 ± 0.025

TTGACACGGG
switch fluorescence ratio: 1.11 ± 0.025

TTGACCCGAC
switch fluorescence ratio: 1.4 ± 0.39

TTGACCCGGT
switch fluorescence ratio: 1.06 ± 0.085

TTGACCGACT
switch fluorescence ratio: 0.973 ± 0.043

TTGACGAGCG
switch fluorescence ratio: 1.13 ± 0.051

TTGACGCGTC
switch fluorescence ratio: 1.02 ± 0.018

TTGACGTTTC
switch fluorescence ratio: 1.02 ± 0.033

TTGACTAGCT
switch fluorescence ratio: 1.08 ± 0.09

TTGACTGTAG
switch fluorescence ratio: 0.982 ± 0.013

TTGACTTATT
switch fluorescence ratio: 1 ± 0.043

TTGAGACAGG
switch fluorescence ratio: 1.0131 ± 0.00096

TTGAGATCCA
switch fluorescence ratio: 0.9929 ± 0.0085

TTGAGATCCG
switch fluorescence ratio: 0.986 ± 0.053

TTGAGATGGA
switch fluorescence ratio: 1.01 ± 0.0062

TTGAGATGTT
switch fluorescence ratio: 1.01 ± 0.025

TTGAGCCTCC
switch fluorescence ratio: 1.2 ± 0.15

TTGAGCGGTC
switch fluorescence ratio: 1.1 ± 0.022

TTGAGCTAGT
switch fluorescence ratio: 1 ± 0.032

TTGAGGCACG
switch fluorescence ratio: 1.04 ± 0.042

TTGAGGGCGG
switch fluorescence ratio: 1.005 ± 0.0098

TTGAGGGGAG
switch fluorescence ratio: 1.01 ± 0.012

TTGAGGGGCA
switch fluorescence ratio: 1.01 ± 0.033

TTGAGGGTCG
switch fluorescence ratio: 0.995 ± 0.035

TTGAGGTC
switch fluorescence ratio: 1 ± 0.029

TTGAGTATGG
switch fluorescence ratio: 0.976 ± 0.028

TTGAGTCCTT
switch fluorescence ratio: 1.04 ± 0.022

TTGAGTGTCA
switch fluorescence ratio: 0.9852 ± 0.007

TTGAGTTGCG
switch fluorescence ratio: 0.986 ± 0.028

TTGAGTTGGT
switch fluorescence ratio: 0.95 ± 0.025

TTGAGTTTAC
switch fluorescence ratio: 1.058 ± 0.0028

TTGAGTTTGC
switch fluorescence ratio: 1 ± 0.051

TTGATACATA
switch fluorescence ratio: 1.03 ± 0.017

TTGATAGATG
switch fluorescence ratio: 0.975 ± 0.028

TTGATCGGTT
switch fluorescence ratio: 1.002 ± 0.00027

TTGATGAAAT
switch fluorescence ratio: 0.984 ± 0.014

TTGATGAAGT
switch fluorescence ratio: 1.01 ± 0.031

TTGATGAATT
switch fluorescence ratio: 1.01 ± 0.017

TTGATGACGT
switch fluorescence ratio: 0.9932 ± 0.0075

TTGATGAGGA
switch fluorescence ratio: 0.978 ± 0.048

TTGATGATAT
switch fluorescence ratio: 0.986 ± 0.019

TTGATGCAAA
switch fluorescence ratio: 1.01 ± 0.05

TTGATGCCGG
switch fluorescence ratio: 1.05 ± 0.049

TTGATGGGAG
switch fluorescence ratio: 1.07 ± 0.12

TTGATGGTTG
switch fluorescence ratio: 0.964 ± 0.021

TTGATGTGGG
switch fluorescence ratio: 0.975 ± 0.029

TTGATGTGTT
switch fluorescence ratio: 1 ± 0.028

TTGATTAAAT
switch fluorescence ratio: 0.9575 ± 0.0089

TTGATTAAGC
switch fluorescence ratio: 1.03 ± 0.043

TTGATTAATA
switch fluorescence ratio: 0.962 ± 0.022

TTGATTACTT
switch fluorescence ratio: 1 ± 0.04

TTGATTGGCA
switch fluorescence ratio: 0.993 ± 0.025

TTGATTTATT
switch fluorescence ratio: 0.994 ± 0.017

TTGATTTTGT
switch fluorescence ratio: 1.01 ± 0.019

TTGATTTTTA
switch fluorescence ratio: 0.99 ± 0.044

TTGATTTTTT
switch fluorescence ratio: 0.996 ± 0.029

TTGCAAAAGC
switch fluorescence ratio: 1 ± 0.065

TTGCAACTTT
switch fluorescence ratio: 1.12 ± 0.17

TTGCAAGAAT
switch fluorescence ratio: 1.023 ± 0.0021

TTGCAAGCGG
switch fluorescence ratio: 0.995 ± 0.011

TTGCACCGGT
switch fluorescence ratio: 1.034 ± 0.0055

TTGCACGGGT
switch fluorescence ratio: 1.01 ± 0.02

TTGCAGGAGG
switch fluorescence ratio: 1 ± 0.019

TTGCAGGGT
switch fluorescence ratio: 0.9804 ± 0.0019

TTGCATAGGG
switch fluorescence ratio: 1.02 ± 0.023

TTGCATATTT
switch fluorescence ratio: 1.05 ± 0.033

TTGCATGGTG
switch fluorescence ratio: 1.06 ± 0.03

TTGCCAAGTG
switch fluorescence ratio: 1.01 ± 0.02

TTGCCATGTG
switch fluorescence ratio: 1 ± 0.034

TTGCCGATAC
switch fluorescence ratio: 2.16 ± 0.12

TTGCCGCTTG
switch fluorescence ratio: 1.21 ± 0.33

TTGCCGGGAG
switch fluorescence ratio: 1.02 ± 0.066

TTGCCGGTAT
switch fluorescence ratio: 1.05 ± 0.021

TTGCCGTTCA
switch fluorescence ratio: 1.02 ± 0.013

TTGCCTGCAT
switch fluorescence ratio: 1.011 ± 0.0092

TTGCCTTCCG
switch fluorescence ratio: 2.17 ± 0.27

TTGCGAGCTT
switch fluorescence ratio: 0.986 ± 0.061

TTGCGAGGGG
switch fluorescence ratio: 0.9778 ± 0.006

TTGCGATGGG
switch fluorescence ratio: 0.995 ± 0.03

TTGCGCGGGG
switch fluorescence ratio: 1.02 ± 0.077

TTGCGGCGTG
switch fluorescence ratio: 0.956 ± 0.024

TTGCGGGAAC
switch fluorescence ratio: 1.07 ± 0.063

TTGCGGGGAA
switch fluorescence ratio: 1.03 ± 0.029

TTGCGGGGGA
switch fluorescence ratio: 1.01 ± 0.028

TTGCGGGGT
switch fluorescence ratio: 1.02 ± 0.011

TTGCGGTTAG
switch fluorescence ratio: 1.012 ± 0.0017

TTGCGGTTGA
switch fluorescence ratio: 1.0313 ± 0.00057

TTGCGGTTGG
switch fluorescence ratio: 1 ± 0.076

TTGCGTATGC
switch fluorescence ratio: 1.08 ± 0.11

TTGCTAATAT
switch fluorescence ratio: 1.038 ± 0.0093

TTGCTACAGT
switch fluorescence ratio: 1.01 ± 0.019

TTGCTATCAG
switch fluorescence ratio: 1 ± 0.047

TTGCTCAGGG
switch fluorescence ratio: 1.03 ± 0.041

TTGCTCGCCG
switch fluorescence ratio: 1.08 ± 0.035

TTGCTCTAAC
switch fluorescence ratio: 0.998 ± 0.022

TTGCTCTCTT
switch fluorescence ratio: 0.98 ± 0.083

TTGCTCTTTT
switch fluorescence ratio: 1.019 ± 0.0013

TTGCTGGGTG
switch fluorescence ratio: 1.1 ± 0.056

TTGCTGGTTG
switch fluorescence ratio: 1.01 ± 0.03

TTGCTGTACT
switch fluorescence ratio: 1.02 ± 0.021

TTGCTGTGTC
switch fluorescence ratio: 1.07 ± 0.028

TTGCTGTTGG
switch fluorescence ratio: 1.03 ± 0.033

TTGCTGTTGT
switch fluorescence ratio: 1.01 ± 0.022

TTGCTTAAGT
switch fluorescence ratio: 1.03 ± 0.075

TTGCTTCCAC
switch fluorescence ratio: 1.08 ± 0.032

TTGCTTGGTT
switch fluorescence ratio: 0.996 ± 0.011

TTGCTTTGTC
switch fluorescence ratio: 0.994 ± 0.013

TTGCTTTTAT
switch fluorescence ratio: 0.991 ± 0.024

TTGGAAAAGG
switch fluorescence ratio: 1.02 ± 0.029

TTGGAAAATT
switch fluorescence ratio: 1.21 ± 0.35

TTGGAAATTG
switch fluorescence ratio: 1.01 ± 0.019

TTGGAATATT
switch fluorescence ratio: 0.9812 ± 0.0027

TTGGACATAT
switch fluorescence ratio: 1.008 ± 0.0039

TTGGACATGG
switch fluorescence ratio: 0.963 ± 0.012

TTGGACCATG
switch fluorescence ratio: 1.01 ± 0.038

TTGGACGGTT
switch fluorescence ratio: 1 ± 0.015

TTGGACTAGC
switch fluorescence ratio: 0.981 ± 0.033

TTGGACTAGT
switch fluorescence ratio: 1.018 ± 0.0023

TTGGAGAAGG
switch fluorescence ratio: 0.998 ± 0.018

TTGGAGCCCT
switch fluorescence ratio: 1.069 ± 0.0022

TTGGAGGGGT
switch fluorescence ratio: 1.09 ± 0.15

TTGGAGTCCC
switch fluorescence ratio: 0.99 ± 0.022

TTGGAGTTCG
switch fluorescence ratio: 0.982 ± 0.013

TTGGAGTTG
switch fluorescence ratio: 1.02 ± 0.048

TTGGATGGGG
switch fluorescence ratio: 0.972 ± 0.017

TTGGATTGGC
switch fluorescence ratio: 0.978 ± 0.023

TTGGATTTAA
switch fluorescence ratio: 1.02 ± 0.012

TTGGCAAGCT
switch fluorescence ratio: 1.06 ± 0.072

TTGGCACGTG
switch fluorescence ratio: 0.985 ± 0.061

TTGGCAGATG
switch fluorescence ratio: 1 ± 0.043

TTGGCATATC
switch fluorescence ratio: 1.89 ± 0.76

TTGGCATGAG
switch fluorescence ratio: 0.987 ± 0.02

TTGGCATGCG
switch fluorescence ratio: 1.01 ± 0.021

TTGGCCATCG
switch fluorescence ratio: 0.954 ± 0.039

TTGGCCATGA
switch fluorescence ratio: 0.976 ± 0.029

TTGGCCGGG
switch fluorescence ratio: 0.9643 ± 0.009

TTGGCGCGCA
switch fluorescence ratio: 1.023 ± 0.0016

TTGGCGCTGG
switch fluorescence ratio: 0.993 ± 0.026

TTGGCTAATA
switch fluorescence ratio: 1.01 ± 0.018

TTGGCTACTG
switch fluorescence ratio: 0.962 ± 0.065

TTGGCTAGTT
switch fluorescence ratio: 1 ± 0.029

TTGGCTGTTT
switch fluorescence ratio: 1.016 ± 0.01

TTGGCTTTGA
switch fluorescence ratio: 0.9893 ± 0.0097

TTGGGAAATA
switch fluorescence ratio: 1.01 ± 0.024

TTGGGAACTA
switch fluorescence ratio: 1.01 ± 0.02

TTGGGAATA
switch fluorescence ratio: 0.988 ± 0.035

TTGGGAATTC
switch fluorescence ratio: 0.98044 ± 0.00048

TTGGGACTAC
switch fluorescence ratio: 1.02 ± 0.036

TTGGGACTTG
switch fluorescence ratio: 0.999 ± 0.054
